Experimental data as given in patent US20240092930A1 (MABWELL SHANGHAI BIOSCIENCE, published 2024).
Numbering of substitutions follows the chain as printed. Each block holds one binder with its values, some of them ahead of it.

Biological target: T1, recombinant human Trop-2-his protein (ACCESSION NO.: NP_002344.2, AA 1-274) (human, UniProt P09758 27-274)
T1 construct: range 27-274; also called recombinant human Trop-2 protein; recombinant human Trop-2 extracellular domain; not shown: his tag
T1 sequence (looked up): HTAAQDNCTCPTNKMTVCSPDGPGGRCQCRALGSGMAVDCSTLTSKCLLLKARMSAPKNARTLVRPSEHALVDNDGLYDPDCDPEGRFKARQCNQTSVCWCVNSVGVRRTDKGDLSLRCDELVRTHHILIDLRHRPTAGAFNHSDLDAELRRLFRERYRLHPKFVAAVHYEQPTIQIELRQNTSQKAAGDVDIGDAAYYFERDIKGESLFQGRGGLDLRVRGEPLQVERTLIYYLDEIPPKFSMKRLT
Experiment: BLI, antibody on AHC sensor, Trop-2-his 60 nM
Method: 5-6 days after cell transfection, culture supernatants were purified through ProA affinity chromatography column to obtain different humanized antibodies. Affinities of the obtained antibodies were determined by an assay including capturing Fc fragments of the antibodies with anti-human IgG Fc capture (AHC) biosensors using Octet QKe system instrument from Fortebio. For the assay, each of the humanized antibodies and control antibody Sacituzumab was diluted to 4 μg/ml in PBS, and was allowed to flow through the surface of an AHC biosensor (Cat.: 18-0015, PALL) for 120 s. Recombinant human Trop-2-his protein (ACCESSION NO.: NP_002344.2, AA 1-274) was used as a mobile phase, and its concentration was 60 nM. The binding time was 100 s and the dissociation time was 300 s. When the assay was finished, data from which the response values of blank control had been deducted were fitted to a 1:1 Langmuir binding model using software, and then kinetic constants for antigen-antibody binding were calculated.
Affinities of the antibodies obtained from the combinations of mutants of murine antibody 23-12, chimeric antibody ch23-12 and control antibody Sacituzumab to recombinant human Trop-2-his protein were determined by ForteBijo (Table 5).

B1: h23-12-1 (antibody, human IgG1, kappa, V domains shown)
VH: QVQLVQSGAEVKKPGASVKVSCKASGYTFTSYWMHWVRQAPGQGLEWMGEITPSDNYTSYNQKFKGRVTITRDTSTSTAYMELSSLRSEDTAVYYCARGHGNYVSFDYWGQGTLVTVSS
VL: DIQMTQSPSSLSASVGDRVTITCRASQDISNYLNWYQQKPGKAPKLLIYYTSRLHSGVPSRFSGSGSGTDFTLTISSLQPEDFATYFCQQGYTLPPYTFGQGTKLEIKR
notes: also called CDR grafted antibody 23-12
Kd: 0.272 nM

B4: h23-12-6 (antibody, human IgG1, kappa, V domains shown)
VH: B1 VH with H100E
VL: B1 VL
Kd: 0.298 nM

B5: h23-12-18 (antibody, human IgG1, kappa, V domains shown)
VH: B1 VH with T58G
VL: B1 VL with R53S
Kd: 0.991 nM

B7: h23-12-11 (antibody, human IgG1, kappa, V domains shown)
VH: B1 VH with T58G
VL: B1 VL with T51A
Kd: 0.881 nM

B9: h23-12-12 (antibody, human IgG1, kappa, V domains shown)
VH: B1 VH with N61A
VL: B1 VL with T51A
Kd: 26.2 nM

B11: h23-12-2 (antibody, human IgG1, kappa, V domains shown)
VH: B1 VH with S54G
VL: B1 VL
Kd: 0.893 nM

B12: h23-12-15 (antibody, human IgG1, kappa, V domains shown)
VH: B1 VH
VL: B1 VL with R53S
Kd: 1.43 nM

B16: h23-12-16 (antibody, human IgG1, kappa, V domains shown)
VH: B1 VH with S54G
VL: B1 VL with R53S
Kd: 2.87 nM

B18: h23-12-13 (antibody, human IgG1, kappa, V domains shown)
VH: B1 VH with H100E
VL: B1 VL with T51A
Kd: 0.916 nM

B19: h23-12-7 (antibody, human IgG1, kappa, V domains shown)
VH: B1 VH with H100Q
VL: B1 VL
Kd: 6.8 nM

B21: h23-12-19 (antibody, human IgG1, kappa, V domains shown)
VH: B1 VH with N61A
VL: B1 VL with R53S
Kd: 10 nM

B27: h23-12-14 (antibody, human IgG1, kappa, V domains shown)
VH: B1 VH with H100Q
VL: B1 VL with T51A
Kd: 23.9 nM

B32: h23-12-3 (antibody, human IgG1, kappa, V domains shown)
VH: B1 VH with N56G
VL: B1 VL
Kd: 15 nM

B33: h23-12-10 (antibody, human IgG1, kappa, V domains shown)
VH: B1 VH with N56G
VL: B1 VL with T51A
Kd: 9.62 nM

B35: h23-12-9 (antibody, human IgG1, kappa, V domains shown)
VH: B1 VH with S54G
VL: B1 VL with T51A
Kd: 1.1 nM

B38: h23-12-8 (antibody, human IgG1, kappa, V domains shown)
VH: B1 VH
VL: B1 VL with T51A
Kd: 0.9 nM

B39: h23-12-4 (antibody, human IgG1, kappa, V domains shown)
VH: B1 VH with T58G
VL: B1 VL
Kd: 0.827 nM

B41: h23-12-5 (antibody, human IgG1, kappa, V domains shown)
VH: B1 VH with N61A
VL: B1 VL
Kd: 3.2 nM

B43: h23-12-17 (antibody, human IgG1, kappa, V domains shown)
VH: B1 VH with N56G
VL: B1 VL with R53S
Kd: 28 nM

The remaining lines, values ahead:

Kd: 5.21 nM
B2: h23-12-24 (antibody, human IgG1, kappa, V domains shown)
VH: B1 VH with N56G
VL: B1 VL with H55E

Kd: 4.13 nM
B3: h23-12-28 (antibody, human IgG1, kappa, V domains shown)
VH: B1 VH with H100Q
VL: B1 VL with H55E

Kd: 0.98 nM
B6: h23-12-43 (antibody, human IgG1, kappa, V domains shown)
VH: B1 VH
VL: B1 VL with T93S

Kd: 63.9 nM
B8: h23-12-31 (antibody, human IgG1, kappa, V domains shown)
VH: B1 VH with N56G
VL: B1 VL with H55Q

Kd: 0.717 nM
B10: h23-12-44 (antibody, human IgG1, kappa, V domains shown)
VH: B1 VH with S54G
VL: B1 VL with T93S

Kd: 0.496 nM
B13: h23-12-27 (antibody, human IgG1, kappa, V domains shown)
VH: B1 VH with H100E
VL: B1 VL with H55E

Kd: 5.43 nM
B14: h23-12-26 (antibody, human IgG1, kappa, V domains shown)
VH: B1 VH with N61A
VL: B1 VL with H55E

Kd: 6.72 nM
B15: h23-12-29 (antibody, human IgG1, kappa, V domains shown)
VH: B1 VH
VL: B1 VL with H55Q

Kd: 0.492 nM
B17: h23-12-39 (antibody, human IgG1, kappa, V domains shown)
VH: B1 VH with T58G
VL: B1 VL with G91Y

Kd: 1.46 nM
B20: h23-12-20 (antibody, human IgG1, kappa, V domains shown)
VH: B1 VH with H100E
VL: B1 VL with R53S

Kd: 1.3 nM
B22: h23-12-22 (antibody, human IgG1, kappa, V domains shown)
VH: B1 VH
VL: B1 VL with H55E

Kd: 0.782 nM
B23: h23-12-41 (antibody, human IgG1, kappa, V domains shown)
VH: B1 VH with H100E
VL: B1 VL with G91Y

Kd: 2.16 nM
B24: h23-12-40 (antibody, human IgG1, kappa, V domains shown)
VH: B1 VH with N61A
VL: B1 VL with G91Y

Kd: 0.893 nM
B25: h23-12-37 (antibody, human IgG1, kappa, V domains shown)
VH: B1 VH with S54G
VL: B1 VL with G91Y

Kd: 7.86 nM
B26: h23-12-38 (antibody, human IgG1, kappa, V domains shown)
VH: B1 VH with N56G
VL: B1 VL with G91Y

Kd: 0.77 nM
B28: h23-12-23 (antibody, human IgG1, kappa, V domains shown)
VH: B1 VH with S54G
VL: B1 VL with H55E

Kd: 22.8 nM
B29: h23-12-21 (antibody, human IgG1, kappa, V domains shown)
VH: B1 VH with H100Q
VL: B1 VL with R53S

Kd: 8.91 nM
B30: h23-12-33 (antibody, human IgG1, kappa, V domains shown)
VH: B1 VH with N61A
VL: B1 VL with H55Q

Kd: 3.09 nM
B31: h23-12-42 (antibody, human IgG1, kappa, V domains shown)
VH: B1 VH with H100Q
VL: B1 VL with G91Y

Kd: 9.77 nM
B34: h23-12-35 (antibody, human IgG1, kappa, V domains shown)
VH: B1 VH with H100Q
VL: B1 VL with H55Q

Kd: 5.57 nM
B36: h23-12-34 (antibody, human IgG1, kappa, V domains shown)
VH: B1 VH with H100E
VL: B1 VL with H55Q

Kd: 9.76 nM
B37: h23-12-30 (antibody, human IgG1, kappa, V domains shown)
VH: B1 VH with S54G
VL: B1 VL with H55Q

Kd: 0.601 nM
B40: h23-12-32 (antibody, human IgG1, kappa, V domains shown)
VH: B1 VH with T58G
VL: B1 VL with H55Q

Kd: 8.81 nM
B42: h23-12-36 (antibody, human IgG1, kappa, V domains shown)
VH: B1 VH
VL: B1 VL with G91Y
